# Measured values taken from article PMC4493011, “The Cold Shock Domain of YB-1 Segregates RNA from DNA by Non-Bonded Interactions”.
# Columns and labels:
# Settings in all cases: protein: recombinant; single strand
# [1] = molecular target: T1, YB-1 (full-length) (human, UniProt P67809 1-324); assay: EMSA; apparent Kd, protein concentration at 50% saturation; 7 pmol RNA in 10 ul; 10 mM Hepes-KOH pH 7.6, 100 mM KCl, 30 C, 15 min, 10 ul; 8% native PAGE in TBE, silver staining
# [2] = molecular target: T2, YB-1 cold shock domain (CSD) (human, UniProt P67809 51-129); assay: as above
# [3] = molecular target: T1, YB-1 (full-length); assay: EMSA; apparent Kd, protein concentration at 50% saturation; 7 pmol DNA in 10 ul; 10 mM Hepes-KOH pH 7.6, 100 mM KCl, 30 C, 15 min, 10 ul; 8% native PAGE in TBE, silver staining
# [4] = molecular target: T2, YB-1 cold shock domain (CSD); assay: as above
# T1 sequence (P67809 whole entry, the tested form may be a part): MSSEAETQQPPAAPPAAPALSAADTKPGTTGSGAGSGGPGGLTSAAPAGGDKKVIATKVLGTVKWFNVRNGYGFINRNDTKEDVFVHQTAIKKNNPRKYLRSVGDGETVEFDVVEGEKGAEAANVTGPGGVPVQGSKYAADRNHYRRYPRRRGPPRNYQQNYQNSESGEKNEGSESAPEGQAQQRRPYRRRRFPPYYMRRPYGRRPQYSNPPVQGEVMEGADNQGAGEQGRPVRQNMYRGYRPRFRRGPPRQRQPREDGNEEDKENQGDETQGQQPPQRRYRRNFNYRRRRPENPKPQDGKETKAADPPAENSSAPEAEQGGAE
# T2 sequence (P67809 51-129): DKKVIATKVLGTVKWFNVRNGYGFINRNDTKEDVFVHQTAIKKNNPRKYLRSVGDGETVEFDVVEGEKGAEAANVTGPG
Binder,Kd [1],Kd [2],Kd [3],Kd [4]
AGGAUGGGUGAGUGAGGUAG (ssRNA) [G-rich RNA 20-mer],0.3 µM,2.5 µM,–,–
AGGATGGGTGAGTGAGGTAG (ssDNA) [G-rich DNA 20-mer],–,–,0.6 µM,6 µM
